From IntAct's records for PubMed 35512704

B1: Speckle-type POZ protein (Homo sapiens), O43791 (parent)
chain: MSRVPSPPPPAEMSSGPVAESWCYTQIKVVKFSYMWTINNFSFCREEMGEVIKSSTFSSGANDKLKWCLRVNPKGLDEESKDYLSLYLLLVSCPKSEVRAKFKFSILNAKGEETKAMESQRAYRFVQGKDWGFKKFIRRDFLLDEANGLLPDDKLTLFCEVSVVQDSVNISGQNTMNMVKVPECRLADELGGLWENSRFTDCCLCVAGQEFQAHKAILAARSPVFSAMFEHEMEESKKNRVEINDVEPEVFKEMMCFIYTGKAPNLDKMADDLLAAADKYALERLKVMCEDALCSNLSVENAAEILILADLHSADQLKTQAVDFINYHASDVLETSGWKSMVVSHPHLVAEAYRSLASAQCPFLGPPRKRLKQS

Variants of: B1
Conditions: with ezh1_human EZH1, Q92800

Row | Variant | effect of a mutation on the interaction
1 | MSRVPSPPPPAEMSSGPVAESWCYTQIKVVKFSYMWTINNFSFCREEMGEVIKSSTFSSGANDKLKWCLRVNPKGLDEESKDYLSLCLLLVSCPKSEVRAKFKFSILNAKGEETKAMESQRAYRFVQGKDWGFKKFIRRDFLLDEANGLLPDDKLTLFCEVSVVQDSVNISGQNTMNMVKVPECRLADELGGLWENSRFTDCCLCVAGQEFQAHKAILAARSPVFSAMFEHEMEESKKNRVEINDVEPEVFKEMMCFIYTGKAPNLDKMADDLLAAADKYALERLKVMCEDALCSNLSVENAAEILILADLHSADQLKTQAVDFINYHASDVLETSGWKSMVVSHPHLVAEAYRSLASAQCPFLGPPRKRLKQS [Y87C] | with no effect

Variants of: B1
Conditions: with ezh2_human EZH2, Q15910
Sequence of ezh2_human EZH2, Q15910 (Q15910 whole entry, looked up): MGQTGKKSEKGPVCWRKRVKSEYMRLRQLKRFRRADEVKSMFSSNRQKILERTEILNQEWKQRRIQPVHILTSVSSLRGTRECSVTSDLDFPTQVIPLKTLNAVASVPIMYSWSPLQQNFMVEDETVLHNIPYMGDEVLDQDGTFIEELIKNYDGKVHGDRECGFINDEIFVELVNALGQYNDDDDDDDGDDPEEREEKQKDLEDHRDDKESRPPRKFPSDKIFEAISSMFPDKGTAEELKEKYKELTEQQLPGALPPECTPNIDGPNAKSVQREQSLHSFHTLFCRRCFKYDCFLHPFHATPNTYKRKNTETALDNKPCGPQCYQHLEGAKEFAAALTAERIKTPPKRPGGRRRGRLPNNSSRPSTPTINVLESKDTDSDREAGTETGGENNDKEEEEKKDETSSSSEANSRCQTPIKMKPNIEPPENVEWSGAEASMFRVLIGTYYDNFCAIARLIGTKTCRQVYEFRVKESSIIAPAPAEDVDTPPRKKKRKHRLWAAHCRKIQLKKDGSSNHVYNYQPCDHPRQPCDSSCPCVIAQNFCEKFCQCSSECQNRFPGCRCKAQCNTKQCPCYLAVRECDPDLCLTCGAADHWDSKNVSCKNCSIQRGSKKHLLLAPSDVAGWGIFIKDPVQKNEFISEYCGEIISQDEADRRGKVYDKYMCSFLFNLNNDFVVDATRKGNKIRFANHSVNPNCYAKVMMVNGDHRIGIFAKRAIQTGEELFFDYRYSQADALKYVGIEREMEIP

Row | Variant | effect of a mutation on the interaction
2 | MSRVPSPPPPAEMSSGPVAESWCYTQIKVVKFSYMWTINNFSFCREEMGEVIKSSTFSSGANDKLKWCLRVNPKGLDEESKDYLSLCLLLVSCPKSEVRAKFKFSILNAKGEETKAMESQRAYRFVQGKDWGFKKFIRRDFLLDEANGLLPDDKLTLFCEVSVVQDSVNISGQNTMNMVKVPECRLADELGGLWENSRFTDCCLCVAGQEFQAHKAILAARSPVFSAMFEHEMEESKKNRVEINDVEPEVFKEMMCFIYTGKAPNLDKMADDLLAAADKYALERLKVMCEDALCSNLSVENAAEILILADLHSADQLKTQAVDFINYHASDVLETSGWKSMVVSHPHLVAEAYRSLASAQCPFLGPPRKRLKQS [Y87C] | with no effect

Variants of: B1
Conditions: with facd2_human FANCD2, Q9BXW9
Sequence of facd2_human FANCD2, Q9BXW9 (Q9BXW9 whole entry): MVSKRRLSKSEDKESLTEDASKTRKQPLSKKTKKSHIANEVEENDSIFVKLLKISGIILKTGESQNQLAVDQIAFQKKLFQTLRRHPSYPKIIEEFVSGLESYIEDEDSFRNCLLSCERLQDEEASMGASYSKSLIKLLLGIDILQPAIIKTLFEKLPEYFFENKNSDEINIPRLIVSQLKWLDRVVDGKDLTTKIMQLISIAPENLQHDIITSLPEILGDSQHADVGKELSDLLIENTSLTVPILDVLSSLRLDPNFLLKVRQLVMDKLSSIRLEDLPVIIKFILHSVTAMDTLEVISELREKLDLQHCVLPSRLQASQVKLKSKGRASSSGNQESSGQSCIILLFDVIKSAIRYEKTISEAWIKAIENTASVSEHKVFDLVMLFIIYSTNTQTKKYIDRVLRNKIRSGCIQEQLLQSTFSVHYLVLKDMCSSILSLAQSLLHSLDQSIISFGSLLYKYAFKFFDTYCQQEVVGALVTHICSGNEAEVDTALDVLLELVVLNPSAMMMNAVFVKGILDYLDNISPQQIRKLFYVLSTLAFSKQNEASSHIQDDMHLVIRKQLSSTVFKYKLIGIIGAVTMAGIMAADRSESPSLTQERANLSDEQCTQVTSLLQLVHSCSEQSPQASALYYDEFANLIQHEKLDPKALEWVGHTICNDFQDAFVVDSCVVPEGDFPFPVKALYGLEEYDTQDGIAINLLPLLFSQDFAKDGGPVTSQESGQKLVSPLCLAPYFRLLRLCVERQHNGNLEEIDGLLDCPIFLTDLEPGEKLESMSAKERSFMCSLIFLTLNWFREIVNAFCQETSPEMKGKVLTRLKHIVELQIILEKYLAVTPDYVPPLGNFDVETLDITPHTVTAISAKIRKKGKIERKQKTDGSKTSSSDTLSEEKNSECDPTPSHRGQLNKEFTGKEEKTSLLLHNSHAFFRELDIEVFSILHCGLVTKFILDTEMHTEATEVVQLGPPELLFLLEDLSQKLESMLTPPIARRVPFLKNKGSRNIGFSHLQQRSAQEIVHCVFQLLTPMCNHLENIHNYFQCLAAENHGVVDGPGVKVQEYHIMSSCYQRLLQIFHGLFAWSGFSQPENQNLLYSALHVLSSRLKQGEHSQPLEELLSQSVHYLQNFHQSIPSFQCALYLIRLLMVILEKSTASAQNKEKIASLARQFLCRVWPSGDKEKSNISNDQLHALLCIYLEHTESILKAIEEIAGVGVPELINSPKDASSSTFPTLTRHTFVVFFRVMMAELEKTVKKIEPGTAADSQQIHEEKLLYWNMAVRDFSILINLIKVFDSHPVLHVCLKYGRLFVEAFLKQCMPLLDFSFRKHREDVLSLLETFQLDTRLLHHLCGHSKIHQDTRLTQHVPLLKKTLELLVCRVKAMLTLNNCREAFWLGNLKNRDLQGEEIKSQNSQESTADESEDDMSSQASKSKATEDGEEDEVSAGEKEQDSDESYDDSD

Row | Variant | effect of a mutation on the interaction
3 | MSRVPSPPPPAEMSSGPVAESWCYTQIKVVKFSYMWTINNFSFCREEMGEVIKSSTFSSGANDKLKWCLRVNPKGLDEESKDYLSLCLLLVSCPKSEVRAKFKFSILNAKGEETKAMESQRAYRFVQGKDWGFKKFIRRDFLLDEANGLLPDDKLTLFCEVSVVQDSVNISGQNTMNMVKVPECRLADELGGLWENSRFTDCCLCVAGQEFQAHKAILAARSPVFSAMFEHEMEESKKNRVEINDVEPEVFKEMMCFIYTGKAPNLDKMADDLLAAADKYALERLKVMCEDALCSNLSVENAAEILILADLHSADQLKTQAVDFINYHASDVLETSGWKSMVVSHPHLVAEAYRSLASAQCPFLGPPRKRLKQS [Y87C] | with no effect

Variants of: B1
Conditions: with tnr6_human FAS

Row | Variant | effect of a mutation on the interaction
4 | MSRVPSPPPPAEMSSGPVAESWCYTQIKVVKFSYMWTINNFSFCREEMGEVIKSSTFSSGANDKLKWCLRVNPKGLDEESKDYLSLCLLLVSCPKSEVRAKFKFSILNAKGEETKAMESQRAYRFVQGKDWGFKKFIRRDFLLDEANGLLPDDKLTLFCEVSVVQDSVNISGQNTMNMVKVPECRLADELGGLWENSRFTDCCLCVAGQEFQAHKAILAARSPVFSAMFEHEMEESKKNRVEINDVEPEVFKEMMCFIYTGKAPNLDKMADDLLAAADKYALERLKVMCEDALCSNLSVENAAEILILADLHSADQLKTQAVDFINYHASDVLETSGWKSMVVSHPHLVAEAYRSLASAQCPFLGPPRKRLKQS [Y87C] | with no effect

Variants of: B1
Conditions: with fgf19_human FGF19, O95750

Row | Variant | effect of a mutation on the interaction
5 | MSRVPSPPPPAEMSSGPVAESWCYTQIKVVKFSYMWTINNFSFCREEMGEVIKSSTFSSGANDKLKWCLRVNPKGLDEESKDYLSLCLLLVSCPKSEVRAKFKFSILNAKGEETKAMESQRAYRFVQGKDWGFKKFIRRDFLLDEANGLLPDDKLTLFCEVSVVQDSVNISGQNTMNMVKVPECRLADELGGLWENSRFTDCCLCVAGQEFQAHKAILAARSPVFSAMFEHEMEESKKNRVEINDVEPEVFKEMMCFIYTGKAPNLDKMADDLLAAADKYALERLKVMCEDALCSNLSVENAAEILILADLHSADQLKTQAVDFINYHASDVLETSGWKSMVVSHPHLVAEAYRSLASAQCPFLGPPRKRLKQS [Y87C] | with no effect

Variants of: B1
Conditions: with fgfp1_human FGFBP1, Q14512

Row | Variant | effect of a mutation on the interaction
6 | MSRVPSPPPPAEMSSGPVAESWCYTQIKVVKFSYMWTINNFSFCREEMGEVIKSSTFSSGANDKLKWCLRVNPKGLDEESKDYLSLCLLLVSCPKSEVRAKFKFSILNAKGEETKAMESQRAYRFVQGKDWGFKKFIRRDFLLDEANGLLPDDKLTLFCEVSVVQDSVNISGQNTMNMVKVPECRLADELGGLWENSRFTDCCLCVAGQEFQAHKAILAARSPVFSAMFEHEMEESKKNRVEINDVEPEVFKEMMCFIYTGKAPNLDKMADDLLAAADKYALERLKVMCEDALCSNLSVENAAEILILADLHSADQLKTQAVDFINYHASDVLETSGWKSMVVSHPHLVAEAYRSLASAQCPFLGPPRKRLKQS [Y87C] | with no effect

Variants of: B1
Conditions: with fgfr4_human FGFR4, P22455

Row | Variant | effect of a mutation on the interaction
7 | MSRVPSPPPPAEMSSGPVAESWCYTQIKVVKFSYMWTINNFSFCREEMGEVIKSSTFSSGANDKLKWCLRVNPKGLDEESKDYLSLCLLLVSCPKSEVRAKFKFSILNAKGEETKAMESQRAYRFVQGKDWGFKKFIRRDFLLDEANGLLPDDKLTLFCEVSVVQDSVNISGQNTMNMVKVPECRLADELGGLWENSRFTDCCLCVAGQEFQAHKAILAARSPVFSAMFEHEMEESKKNRVEINDVEPEVFKEMMCFIYTGKAPNLDKMADDLLAAADKYALERLKVMCEDALCSNLSVENAAEILILADLHSADQLKTQAVDFINYHASDVLETSGWKSMVVSHPHLVAEAYRSLASAQCPFLGPPRKRLKQS [Y87C] | with no effect

Variants of: B1
Conditions: with fumh_human FH

Row | Variant | effect of a mutation on the interaction
8 | MSRVPSPPPPAEMSSGPVAESWCYTQIKVVKFSYMWTINNFSFCREEMGEVIKSSTFSSGANDKLKWCLRVNPKGLDEESKDYLSLCLLLVSCPKSEVRAKFKFSILNAKGEETKAMESQRAYRFVQGKDWGFKKFIRRDFLLDEANGLLPDDKLTLFCEVSVVQDSVNISGQNTMNMVKVPECRLADELGGLWENSRFTDCCLCVAGQEFQAHKAILAARSPVFSAMFEHEMEESKKNRVEINDVEPEVFKEMMCFIYTGKAPNLDKMADDLLAAADKYALERLKVMCEDALCSNLSVENAAEILILADLHSADQLKTQAVDFINYHASDVLETSGWKSMVVSHPHLVAEAYRSLASAQCPFLGPPRKRLKQS [Y87C] | with no effect

Variants of: B1
Conditions: with foxo3_human FOXO3, O43524
Sequence of foxo3_human FOXO3, O43524 (O43524 whole entry): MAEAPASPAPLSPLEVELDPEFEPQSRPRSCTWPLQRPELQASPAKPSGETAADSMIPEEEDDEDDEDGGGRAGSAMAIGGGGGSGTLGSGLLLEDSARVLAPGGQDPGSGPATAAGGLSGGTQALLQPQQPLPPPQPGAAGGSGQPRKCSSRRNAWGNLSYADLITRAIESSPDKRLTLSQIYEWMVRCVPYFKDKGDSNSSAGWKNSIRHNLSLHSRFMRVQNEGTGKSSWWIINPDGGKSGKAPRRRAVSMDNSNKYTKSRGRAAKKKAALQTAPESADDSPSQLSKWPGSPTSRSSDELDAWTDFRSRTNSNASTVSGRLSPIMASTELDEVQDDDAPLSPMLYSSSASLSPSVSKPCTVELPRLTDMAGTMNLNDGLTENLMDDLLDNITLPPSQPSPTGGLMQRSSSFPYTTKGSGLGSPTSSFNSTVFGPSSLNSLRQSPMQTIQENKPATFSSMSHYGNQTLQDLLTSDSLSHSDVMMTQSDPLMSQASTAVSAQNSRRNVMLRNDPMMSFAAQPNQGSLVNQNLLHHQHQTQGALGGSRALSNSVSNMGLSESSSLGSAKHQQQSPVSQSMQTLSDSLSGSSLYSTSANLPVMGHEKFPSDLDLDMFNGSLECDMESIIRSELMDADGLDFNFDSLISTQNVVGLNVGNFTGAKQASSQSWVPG

Row | Variant | effect of a mutation on the interaction
9 | MSRVPSPPPPAEMSSGPVAESWCYTQIKVVKFSYMWTINNFSFCREEMGEVIKSSTFSSGANDKLKWCLRVNPKGLDEESKDYLSLCLLLVSCPKSEVRAKFKFSILNAKGEETKAMESQRAYRFVQGKDWGFKKFIRRDFLLDEANGLLPDDKLTLFCEVSVVQDSVNISGQNTMNMVKVPECRLADELGGLWENSRFTDCCLCVAGQEFQAHKAILAARSPVFSAMFEHEMEESKKNRVEINDVEPEVFKEMMCFIYTGKAPNLDKMADDLLAAADKYALERLKVMCEDALCSNLSVENAAEILILADLHSADQLKTQAVDFINYHASDVLETSGWKSMVVSHPHLVAEAYRSLASAQCPFLGPPRKRLKQS [Y87C] | with no effect

Variants of: B1
Conditions: with fzr1_human FZR1, Q9UM11
Sequence of fzr1_human FZR1, Q9UM11 (Q9UM11 whole entry): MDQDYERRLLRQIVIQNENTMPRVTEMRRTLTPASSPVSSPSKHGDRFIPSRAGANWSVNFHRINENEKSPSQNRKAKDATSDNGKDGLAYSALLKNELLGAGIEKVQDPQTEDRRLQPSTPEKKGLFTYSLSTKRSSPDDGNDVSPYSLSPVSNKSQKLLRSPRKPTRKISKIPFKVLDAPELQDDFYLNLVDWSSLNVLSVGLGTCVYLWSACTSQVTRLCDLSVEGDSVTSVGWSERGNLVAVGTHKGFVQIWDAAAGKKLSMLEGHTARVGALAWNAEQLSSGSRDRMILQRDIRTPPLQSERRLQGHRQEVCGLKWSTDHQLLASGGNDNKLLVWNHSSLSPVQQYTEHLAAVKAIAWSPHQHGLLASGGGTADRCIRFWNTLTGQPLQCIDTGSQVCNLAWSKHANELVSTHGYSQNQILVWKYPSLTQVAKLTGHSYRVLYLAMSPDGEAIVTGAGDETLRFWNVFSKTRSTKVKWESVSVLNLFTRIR

Row | Variant | effect of a mutation on the interaction
10 | MSRVPSPPPPAEMSSGPVAESWCYTQIKVVKFSYMWTINNFSFCREEMGEVIKSSTFSSGANDKLKWCLRVNPKGLDEESKDYLSLCLLLVSCPKSEVRAKFKFSILNAKGEETKAMESQRAYRFVQGKDWGFKKFIRRDFLLDEANGLLPDDKLTLFCEVSVVQDSVNISGQNTMNMVKVPECRLADELGGLWENSRFTDCCLCVAGQEFQAHKAILAARSPVFSAMFEHEMEESKKNRVEINDVEPEVFKEMMCFIYTGKAPNLDKMADDLLAAADKYALERLKVMCEDALCSNLSVENAAEILILADLHSADQLKTQAVDFINYHASDVLETSGWKSMVVSHPHLVAEAYRSLASAQCPFLGPPRKRLKQS [Y87C] | with no effect

Variants of: B1
Conditions: with gbra6_human GABRA6, Q16445
Sequence of gbra6_human GABRA6, Q16445 (Q16445 whole entry): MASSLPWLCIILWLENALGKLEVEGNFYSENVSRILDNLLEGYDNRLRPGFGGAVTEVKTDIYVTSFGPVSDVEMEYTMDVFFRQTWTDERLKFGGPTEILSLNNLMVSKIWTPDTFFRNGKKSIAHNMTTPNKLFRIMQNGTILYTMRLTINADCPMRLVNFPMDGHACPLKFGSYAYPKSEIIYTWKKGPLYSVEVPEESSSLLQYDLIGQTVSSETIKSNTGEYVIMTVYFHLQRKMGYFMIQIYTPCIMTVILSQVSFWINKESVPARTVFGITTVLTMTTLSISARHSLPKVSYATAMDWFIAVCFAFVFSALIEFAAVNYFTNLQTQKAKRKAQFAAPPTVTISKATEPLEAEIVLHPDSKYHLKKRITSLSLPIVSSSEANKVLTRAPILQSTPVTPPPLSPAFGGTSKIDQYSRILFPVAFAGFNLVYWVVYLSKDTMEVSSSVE

Row | Variant | effect of a mutation on the interaction
11 | MSRVPSPPPPAEMSSGPVAESWCYTQIKVVKFSYMWTINNFSFCREEMGEVIKSSTFSSGANDKLKWCLRVNPKGLDEESKDYLSLCLLLVSCPKSEVRAKFKFSILNAKGEETKAMESQRAYRFVQGKDWGFKKFIRRDFLLDEANGLLPDDKLTLFCEVSVVQDSVNISGQNTMNMVKVPECRLADELGGLWENSRFTDCCLCVAGQEFQAHKAILAARSPVFSAMFEHEMEESKKNRVEINDVEPEVFKEMMCFIYTGKAPNLDKMADDLLAAADKYALERLKVMCEDALCSNLSVENAAEILILADLHSADQLKTQAVDFINYHASDVLETSGWKSMVVSHPHLVAEAYRSLASAQCPFLGPPRKRLKQS [Y87C] | with no effect

Variants of: B1
Conditions: with gata1_human GATA1, P15976
Sequence of gata1_human GATA1, P15976 (P15976 whole entry): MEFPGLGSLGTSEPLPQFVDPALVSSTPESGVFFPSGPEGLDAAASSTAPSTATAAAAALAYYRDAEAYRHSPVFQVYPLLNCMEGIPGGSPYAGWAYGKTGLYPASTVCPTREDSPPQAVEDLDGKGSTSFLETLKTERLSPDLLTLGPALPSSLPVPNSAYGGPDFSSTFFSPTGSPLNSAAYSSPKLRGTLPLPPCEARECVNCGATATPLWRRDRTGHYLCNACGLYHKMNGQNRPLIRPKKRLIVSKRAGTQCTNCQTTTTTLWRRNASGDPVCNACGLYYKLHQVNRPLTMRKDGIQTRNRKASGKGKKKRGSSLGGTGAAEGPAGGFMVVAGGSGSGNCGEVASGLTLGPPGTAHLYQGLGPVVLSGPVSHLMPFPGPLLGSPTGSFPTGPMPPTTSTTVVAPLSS

Row | Variant | effect of a mutation on the interaction
12 | MSRVPSPPPPAEMSSGPVAESWCYTQIKVVKFSYMWTINNFSFCREEMGEVIKSSTFSSGANDKLKWCLRVNPKGLDEESKDYLSLCLLLVSCPKSEVRAKFKFSILNAKGEETKAMESQRAYRFVQGKDWGFKKFIRRDFLLDEANGLLPDDKLTLFCEVSVVQDSVNISGQNTMNMVKVPECRLADELGGLWENSRFTDCCLCVAGQEFQAHKAILAARSPVFSAMFEHEMEESKKNRVEINDVEPEVFKEMMCFIYTGKAPNLDKMADDLLAAADKYALERLKVMCEDALCSNLSVENAAEILILADLHSADQLKTQAVDFINYHASDVLETSGWKSMVVSHPHLVAEAYRSLASAQCPFLGPPRKRLKQS [Y87C] | with no effect

Variants of: B1
Conditions: with p66b_human GATAD2B

Row | Variant | effect of a mutation on the interaction
13 | MSRVPSPPPPAEMSSGPVAESWCYTQIKVVKFSYMWTINNFSFCREEMGEVIKSSTFSSGANDKLKWCLRVNPKGLDEESKDYLSLCLLLVSCPKSEVRAKFKFSILNAKGEETKAMESQRAYRFVQGKDWGFKKFIRRDFLLDEANGLLPDDKLTLFCEVSVVQDSVNISGQNTMNMVKVPECRLADELGGLWENSRFTDCCLCVAGQEFQAHKAILAARSPVFSAMFEHEMEESKKNRVEINDVEPEVFKEMMCFIYTGKAPNLDKMADDLLAAADKYALERLKVMCEDALCSNLSVENAAEILILADLHSADQLKTQAVDFINYHASDVLETSGWKSMVVSHPHLVAEAYRSLASAQCPFLGPPRKRLKQS [Y87C] | with no effect

Variants of: B1
Conditions: with gna11_human GNA11, P29992
Sequence of gna11_human GNA11, P29992 (P29992 whole entry): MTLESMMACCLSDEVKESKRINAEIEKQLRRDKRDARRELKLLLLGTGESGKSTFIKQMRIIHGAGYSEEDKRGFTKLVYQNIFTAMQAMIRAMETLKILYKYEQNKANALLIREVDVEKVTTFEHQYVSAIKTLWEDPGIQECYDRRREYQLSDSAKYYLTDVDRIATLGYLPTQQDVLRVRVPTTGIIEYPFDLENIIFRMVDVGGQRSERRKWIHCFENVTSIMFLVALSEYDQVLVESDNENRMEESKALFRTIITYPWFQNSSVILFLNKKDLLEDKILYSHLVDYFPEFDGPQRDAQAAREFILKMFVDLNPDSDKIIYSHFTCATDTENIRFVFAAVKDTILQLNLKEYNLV

Row | Variant | effect of a mutation on the interaction
14 | MSRVPSPPPPAEMSSGPVAESWCYTQIKVVKFSYMWTINNFSFCREEMGEVIKSSTFSSGANDKLKWCLRVNPKGLDEESKDYLSLCLLLVSCPKSEVRAKFKFSILNAKGEETKAMESQRAYRFVQGKDWGFKKFIRRDFLLDEANGLLPDDKLTLFCEVSVVQDSVNISGQNTMNMVKVPECRLADELGGLWENSRFTDCCLCVAGQEFQAHKAILAARSPVFSAMFEHEMEESKKNRVEINDVEPEVFKEMMCFIYTGKAPNLDKMADDLLAAADKYALERLKVMCEDALCSNLSVENAAEILILADLHSADQLKTQAVDFINYHASDVLETSGWKSMVVSHPHLVAEAYRSLASAQCPFLGPPRKRLKQS [Y87C] | with no effect

Variants of: B1
Conditions: with gna13_human GNA13, Q14344
Sequence of gna13_human GNA13, Q14344 (Q14344 whole entry): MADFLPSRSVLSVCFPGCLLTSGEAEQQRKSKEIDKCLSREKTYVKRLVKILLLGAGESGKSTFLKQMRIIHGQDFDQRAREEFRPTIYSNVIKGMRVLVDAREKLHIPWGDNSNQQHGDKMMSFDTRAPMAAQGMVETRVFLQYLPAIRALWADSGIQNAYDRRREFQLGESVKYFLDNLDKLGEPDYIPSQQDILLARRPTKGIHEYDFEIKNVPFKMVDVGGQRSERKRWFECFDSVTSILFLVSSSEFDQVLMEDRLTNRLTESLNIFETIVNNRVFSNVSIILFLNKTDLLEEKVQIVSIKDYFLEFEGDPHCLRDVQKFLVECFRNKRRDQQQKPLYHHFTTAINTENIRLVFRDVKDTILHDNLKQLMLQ

Row | Variant | effect of a mutation on the interaction
15 | MSRVPSPPPPAEMSSGPVAESWCYTQIKVVKFSYMWTINNFSFCREEMGEVIKSSTFSSGANDKLKWCLRVNPKGLDEESKDYLSLCLLLVSCPKSEVRAKFKFSILNAKGEETKAMESQRAYRFVQGKDWGFKKFIRRDFLLDEANGLLPDDKLTLFCEVSVVQDSVNISGQNTMNMVKVPECRLADELGGLWENSRFTDCCLCVAGQEFQAHKAILAARSPVFSAMFEHEMEESKKNRVEINDVEPEVFKEMMCFIYTGKAPNLDKMADDLLAAADKYALERLKVMCEDALCSNLSVENAAEILILADLHSADQLKTQAVDFINYHASDVLETSGWKSMVVSHPHLVAEAYRSLASAQCPFLGPPRKRLKQS [Y87C] | with no effect
